Legend:
[1] = target: T1, huCD33-G69-Fc recombinant protein (human, UniProt P20138 18-259); assay: BLI;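 note: biolayer interferometry: scFvs captured from periplasmic extracts on anti-V5-loaded streptavidin biosensors, antigen association for 2 min, buffer dissociation for 5 min, 1:1 Langmuir fit giving off-rate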
T1 construct: extracellular domain; also called CD33 R69G
Experimental: Discovered scFvs were analyzed for binding to huCD33-R69-His or huCD33-G69-Fc recombinant proteins (for anti-CD33 scFvs; for CLL-1 scFvs, huCLL1-K244-Avi-Tev-His or huCLL1-Q244-Avi-Tev-His were used; for FLT3, huFLT3-T227-His or huFLT3-M227-Fc were used) using BLI on a ForteBio Octet HTX instrument. Streptavidin-coated biosensors were loaded with biotinylated anti-V5 tag monoclonal antibody for 5 min and were then quenched and blocked with 20 μM amine-PEG2-Biotin for 5 min. scFvs were captured on biosensors from scFv clone periplasmic extracts. huCD33 (or huCLL-1, or huFLT3) proteins were then associated with the captured scFvs for 2 minutes, followed by dissociation with buffer (1×HBST [10 mM HEPES pH 7.4, 150 mM NaCl, 0.05% Tween-20], 1 g/L BSA) for 5 minutes. […] Data was fitted with 1:1 Langmuir equation and off-rate values were reported.

[2] = target: T2, huCD33-R69 stably expressed on Jurkat cells (human, UniProt P20138 18-364); assay: FACS on cells;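 note: fixed Jurkat lines probed with myc-tagged scFv periplasmic extracts, anti-myc PE flow cytometry, PE MFI fold binned − <2, + 2–10, ++ 10–30, +++ >30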
T2 construct: whole, on cells; >200,000 receptors per cell; also called CD33 WT; CD33^ARG69
T2 sequence (P20138 18-364): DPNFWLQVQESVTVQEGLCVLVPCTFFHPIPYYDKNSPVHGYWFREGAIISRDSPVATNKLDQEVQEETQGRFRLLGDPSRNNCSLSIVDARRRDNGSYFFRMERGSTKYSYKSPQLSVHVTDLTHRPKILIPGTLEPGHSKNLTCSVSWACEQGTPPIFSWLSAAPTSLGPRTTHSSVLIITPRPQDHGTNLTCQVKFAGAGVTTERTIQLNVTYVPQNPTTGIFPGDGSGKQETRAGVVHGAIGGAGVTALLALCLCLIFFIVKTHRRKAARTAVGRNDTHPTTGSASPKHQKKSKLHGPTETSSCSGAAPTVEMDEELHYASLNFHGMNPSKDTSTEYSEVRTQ
Experimental: (§1) Jurkat cells were engineered to stably express either the huCD33-R69 or huCD33-G69 variant at >200,000 receptors per cell. Parental, huCD33-R69, and huCD33-G69 Jurkat cell lines were stained with differing levels of CellTrace Violet Cell Proliferation Kit (ThermoFisher, cat. #C34557) to barcode each cell line. Barcoded Jurkat cell lines were fixed with paraformaldehyde and incubated with myc-labeled scFv periplasmic extracts and a secondary anti-myc PE-conjugated monoclonal antibody. Appropriate positive and negative controls were used. Stained cells were analyzed by flow cytometry (CytoFLEX, Beckman Coulter, Inc.) and binding was assessed by change in PE mean fluorescence intensity (MFI) of the barcoded cell populations.
(§2) Data is disclosed below in Table 16c, reporting FACS fold change over parental as (−), indicating <2 fold; (+), indicating 2-10 fold; (++), indicating 10-30 fold; and (+++), indicating >30 fold.

[3] = target: T3, huCD33-G69 stably expressed on Jurkat cells (human, UniProt P20138 18-364); assay: FACS on cells;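 note: fixed Jurkat lines probed with myc-tagged scFv periplasmic extracts, anti-myc PE flow cytometry, PE MFI fold binned − <2, + 2–10, ++ 10–30, +++ >30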
T3 construct: whole, on cells; >200,000 receptors per cell; also called CD33 Mutant; CD33 R69G
T3 sequence (P20138 18-364 R69G): as the sequence (P20138 18-364) above, with R52G counted along it
Experimental: as §1, §2

T1 sequence (P20138 18-259 R69G): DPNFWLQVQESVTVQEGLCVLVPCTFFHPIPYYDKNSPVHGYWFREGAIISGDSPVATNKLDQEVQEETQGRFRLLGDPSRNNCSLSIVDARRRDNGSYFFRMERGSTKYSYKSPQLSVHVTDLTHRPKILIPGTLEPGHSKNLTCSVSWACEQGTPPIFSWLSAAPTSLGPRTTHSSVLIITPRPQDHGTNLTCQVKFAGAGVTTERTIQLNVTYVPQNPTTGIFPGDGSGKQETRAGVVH

Binder | binding result [1] | FACS geometric mean fold change over Jurkat parental [2] | FACS geometric mean fold change over Jurkat parental [3]
Polypeptide No. 103 (scFv, V domains shown, scFv) VH: QVQLVQSGAEVKKPGASVKVSCKASGYTFTGYYMHWVRQAPGQGLEWMGWMNPDSGDTNYAQNFQGRVTMTRDTSTSTVYMELSSLRSEDTAVYYCATTRQPHYGMDVWGQGTTVTVSS VL: not shown | binds | 10 to 30 fold | 10 to 30 fold
Polypeptide No. 95 (scFv, V domains shown, scFv) VH: QVQLVQSGAEVKKPGSSVKVSCKASGYSFTTYDINWVRQAPGQGLEWMGRMNPNSGNTGYAQKFQGRVTITADESTSTAYMELSSLRSEDTAVYYCARVVHGMDVWGQGTTVTVSS VL: not shown | binds | 2 to 10 fold | 2 to 10 fold
Polypeptide No. 109 (scFv, V domains shown, scFv) VH: QVQLVQSGAEVKKPGSSVKVSCKASGYTFTTYGISWVRQAPGQGLEWMGWMNPNSGNTGYAQKFQGRVTITADESTSTAYMELSSLRSEDTAVYYCAREGGDGDYPDYWGQGTLVTVSS VL: EIVMTQSPATLSVSPGERATLSCRASQSISSSSLAWYQQKPGQAPRLLIYGASTRATGIPARFSGSGSGTEFTLTISSLQSEDFAVYYCQQYETAPYTFGQGTKLEIKR | binds | 10 to 30 fold | 10 to 30 fold
Polypeptide No. 96 (scFv, V domains shown, scFv) VH: QVQLVQSGAEVKKPGASVKVSCKASGGTFSSYAISWVRQAPGQGLEWMGWMNPSSANTGYAQKFQGRVTMTRDTSTSTVYMELSSLRSEDTAVYYCAKDEMELLTAFDIWGQGTMVTVSS VL: DIQMTQSPSSLSASVGDRVTITCRASQSIGSWLAWYQQKPGKAPKLLIYGVSTLHSGVPSRFSGSGSGTDFTLTISSLQPEDFATYYCQQSYSTPPTFGQGTKLEIKR | binds | > 30 fold | > 30 fold
Polypeptide No. 105 (scFv, V domains shown, scFv) VH: EVQLLESGGGLVQPGGSLRLSCAASGFTFNNAWMTWVRQAPGKGLEWVAVISYDGSNKYYADSVKGRFTISRDNSKNTLYLQMNSLRAEDTAVYYCARMAVAGKGAFDIWGQGTMVTVSS VL: DIQMTQSPSSLSASVGDRVTITCRASQSIYSWLAWYQQKPGKAPKLLIYAASTLQSGVPSRFSGSGSGTDFTLTISSLQPEDFATYYCQQTYSTPVTFGQGTKVEIKR | binds | 10 to 30 fold | 10 to 30 fold
Polypeptide No. 98 (scFv, V domains shown, scFv) VH: QVQLVQSGAEVKKPGASVKVSCKASGGSFSSSAINWVRQAPGQGLEWMGWMNPNSGNTGYAQKFQGRVTMTRDTSTSTVYMELSSLRSEDTAVYYCARDRGIAVAGASPYYYYGMDVWGQGTTVTVSS VL: DIQMTQSPSSLSASVGDRVTITCRASQDIGSYLAWYQQKPGKAPKLLIYAASSLQSGVPSRFSGSGSGTDFTLTISSLQPEDFATYYCHQSYSTPFTFGQGTKLEIKR | binds | 10 to 30 fold | > 30 fold
Polypeptide No. 104 (scFv, V domains shown, scFv) VH: EVQLLESGGGLVQPGGSLRLSCAASGFTFSSSWMHWVRQAPGKGLEWVAVISYDGSEEYYADSVKGRFTISRDNSKNTLYLQMNSLRAEDTAVYYCARLTDYGDYVLGRYLSDWGQGTLVTVSS VL: DIQMTQSPSSLSASVGDRVTITCRASQGISSYLAWYQQKPGKAPKLLIYAASSLQSGVPSRFSGSGSGTDFTLTISSLQPEDFATYYCQQSYSIPPTFGQGTKLEIKR | binds | > 30 fold | > 30 fold
Polypeptide No. 97 (scFv, V domains shown, scFv) VH: EVQLLESGGGLVQPGGSLRLSCAASGFTFRSYWMTWVRQAPGKGLEWVSVISGSGDNTYYADSVKGRFTISRDNSKNTLYLQMNSLRAEDTAVYYCARETTWGMDVWGQGTTVTVSS VL: DIQMTQSPSSLSASVGDRVTITCRASQSISSYLNWYQQKPGKAPKLLIYDASNLETGVPSRFSGSGSGTDFTLTISSLQPEDFATYYCQQSSIIPLTFGGGTKVEIKR | binds | 10 to 30 fold | 2 to 10 fold
Polypeptide No. 99 (scFv, V domains shown, scFv) VH: QVQLVQSGAEVKKPGSSVKVSCKASGYTFSDYHIHWVRQAPGQGLEWMGWMNPNSGNTGYAQKFQGRVTITADESTSTAYMELSSLRSEDTAVYYCARTHSSGYYYWFDPWGQGTLVTVSS VL: DIQMTQSPSSLSASVGDRVTITCRASQGISNNLNWYQQKPGKAPKLLIYQASNKDTGVPSRFSGSGSGTDFTLTISSLQPEDFATYYCQQSYSSPPTFGQGTKVEIKR | binds | > 30 fold | 10 to 30 fold
Polypeptide No. 107 (scFv, V domains shown, scFv) VH: QVQLVQSGAEVKKPGSSVKVSCKASGYTFTDYYIHWVRQAPGQGLEWMGGIIPIFGTANYAQKFQGRVTITADESTSTAYMELSSLRSEDTAVYYCAREPLWFGESSPHDYYGMDVWGQGTLVTVSS VL: DIQMTQSPSSLSASVGDRVTITCQASQDISNYLNWYQQKPGKAPKLLIYAASTLQSGVPSRFSGSGSGTDFTLTISSLQPEDFATYYCQQSYSSPPTFGQGTKVEIKR | binds | 10 to 30 fold | 10 to 30 fold
Polypeptide No. 102 (scFv, V domains shown, scFv) VH: EVQLLESGGGLVQPGGSLRLSCAASGFTFSNAWMSWVRQAPGKGLEWVSGIGGSGGTIYYADSVKGRFTISRDNSKNTLYLQMNSLRAEDTAVYYCAREVAAPLHPFGYYYYMDVWGKGTTVTVSS VL: not shown | binds | 10 to 30 fold | 10 to 30 fold
Polypeptide No. 101 (scFv, V domains shown, scFv) VH: EVQLLESGGGLVQPGGSLRLSCAASGFTFSSYGVHWVRQAPGKGLEWVSAISGDGGDTYYADSVKGRFTISRDNSKNTLYLQMNSLRAEDTAVYYCARDTWDYSNYGGIDYWGQGTLVTVSS VL: DIQMTQSPSSLSASVGDRVTITCRASQNINTFLNWYQQKPGKAPKLLIYAASTLQSGVPSRFSGSGSGTDFTLTISSLQPEDFATYYCQQYDSFPLTFGGGTKVEIKR | binds | > 30 fold | > 30 fold
Polypeptide No. 106 (scFv, V domains shown, scFv) VH: QVQLVQSGAEVKKPGASVKVSCKASGYTFTGYYMHWVRQAPGQGLEWMGRIKPNSGGTDYAQKFQGRVTMTRDTSTSTVYMELSSLRSEDTAVYYCARGAYSGSYYGPIEYFQHWGQGTLVTVSS VL: DIQMTQSPSSLSASVGDRVTITCRASQSISWFLNWYQQKPGKAPKLLIYAASSLQNGVPSRFSGSGSGTDFTLTISSLQPEDFATYYCQQYGSFPPTFGGGTKVEIKR | binds | 2 to 10 fold | 2 to 10 fold

From patent US20240101668A1 (WUGEN, published 2024)
